From paper PMC3048791
Several values for one entry are separate records, joined by “and”; a condition that tells them apart may be missing. Equal values may be shown once.

Molecular target: recombinant ATcpnβ thermosome subunit from Acidianus tengchongensis strain S5 (Acidianus tengchongensis strain S5)
Experiment: cryo-EM structure

recombinant ATcpnβ thermosome subunit from Acidianus tengchongensis strain S5 (natural protein)
subunits per ring (symmetry of top views): 9 and 10
